Patent US20230359371A1 (MODERNATX, published 2023)

Target: T1, OX40 receptor on mouse CD4+ T-cells (mouse, UniProt P47741 20-272)
T1 sequence (looked up): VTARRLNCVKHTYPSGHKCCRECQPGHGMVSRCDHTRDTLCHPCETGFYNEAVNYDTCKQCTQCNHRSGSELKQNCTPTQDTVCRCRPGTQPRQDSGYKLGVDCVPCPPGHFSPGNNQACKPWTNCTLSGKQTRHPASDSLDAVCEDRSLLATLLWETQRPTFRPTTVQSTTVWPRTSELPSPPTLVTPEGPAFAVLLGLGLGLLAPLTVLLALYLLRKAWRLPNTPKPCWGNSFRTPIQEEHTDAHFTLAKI
Test: cell-based or functional assay

B1: murine OX40L polypeptide expressed from mOX40L_miR122 mRNA (SEQ ID NO: 66) on the surface of B16F10 cells (ligand)
chain: MEGEGVQPLDENLENGSRPRFKWKKTLRLVVSGIKGAGMLLCFIYVCLQLSSSPAKDPPIQRLRGAVTRCEDGQLFISSYKNEYQTMEVQNNSVVIKCDGLYIIYLKGSFFQEVKIDLHFREDHNPISIPMLNDGRRIVFTVVASLAFKDKVYLTVNAPDTLCEHLQINDGELIVVQLTPGYCAPEGSYHSTVNQVPL
mouse IL-2 production by CD4+ T-cells (IL-2 ELISA), fold over mock-treated or non-translated mRNA control (about 6 ng/ml): ~2 fold
